The results in this text go back to patent publication US20070135335.

GST-CLK2 (recombinant human CLK2 fused to glutathione S-transferase, pGEX4T-1), sequence (chain, as listed by the source): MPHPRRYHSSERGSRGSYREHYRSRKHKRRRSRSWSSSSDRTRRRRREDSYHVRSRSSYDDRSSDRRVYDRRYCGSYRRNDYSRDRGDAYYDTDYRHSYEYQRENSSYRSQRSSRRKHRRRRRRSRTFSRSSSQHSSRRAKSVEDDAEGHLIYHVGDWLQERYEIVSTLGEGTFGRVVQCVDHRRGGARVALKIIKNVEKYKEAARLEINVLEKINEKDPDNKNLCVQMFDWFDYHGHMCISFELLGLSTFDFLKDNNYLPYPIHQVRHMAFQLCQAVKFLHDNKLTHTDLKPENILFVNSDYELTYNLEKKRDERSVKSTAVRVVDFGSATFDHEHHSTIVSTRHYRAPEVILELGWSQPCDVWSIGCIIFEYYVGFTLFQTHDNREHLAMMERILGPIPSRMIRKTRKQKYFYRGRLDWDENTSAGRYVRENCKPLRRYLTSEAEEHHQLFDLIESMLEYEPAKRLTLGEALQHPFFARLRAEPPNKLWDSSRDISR
GST-CLK4 (recombinant human CLK4 fused to glutathione S-transferase, pGEX4T-1), sequence (chain, as listed by the source): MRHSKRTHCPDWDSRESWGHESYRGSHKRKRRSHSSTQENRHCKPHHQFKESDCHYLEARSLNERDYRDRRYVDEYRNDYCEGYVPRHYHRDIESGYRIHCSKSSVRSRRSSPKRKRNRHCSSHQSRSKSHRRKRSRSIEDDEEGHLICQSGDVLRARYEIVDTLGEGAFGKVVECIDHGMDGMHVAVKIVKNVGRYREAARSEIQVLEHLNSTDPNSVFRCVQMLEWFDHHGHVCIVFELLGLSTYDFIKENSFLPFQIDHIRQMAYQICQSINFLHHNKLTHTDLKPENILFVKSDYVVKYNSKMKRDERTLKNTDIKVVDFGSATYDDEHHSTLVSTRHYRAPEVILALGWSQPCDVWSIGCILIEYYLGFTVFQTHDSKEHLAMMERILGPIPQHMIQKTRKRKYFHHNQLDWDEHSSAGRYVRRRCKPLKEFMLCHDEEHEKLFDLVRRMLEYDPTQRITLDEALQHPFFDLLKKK
GST-CLK1 (recombinant human CLK1 fused to glutathione S-transferase, pGEX4T-1), sequence (chain, as listed by the source): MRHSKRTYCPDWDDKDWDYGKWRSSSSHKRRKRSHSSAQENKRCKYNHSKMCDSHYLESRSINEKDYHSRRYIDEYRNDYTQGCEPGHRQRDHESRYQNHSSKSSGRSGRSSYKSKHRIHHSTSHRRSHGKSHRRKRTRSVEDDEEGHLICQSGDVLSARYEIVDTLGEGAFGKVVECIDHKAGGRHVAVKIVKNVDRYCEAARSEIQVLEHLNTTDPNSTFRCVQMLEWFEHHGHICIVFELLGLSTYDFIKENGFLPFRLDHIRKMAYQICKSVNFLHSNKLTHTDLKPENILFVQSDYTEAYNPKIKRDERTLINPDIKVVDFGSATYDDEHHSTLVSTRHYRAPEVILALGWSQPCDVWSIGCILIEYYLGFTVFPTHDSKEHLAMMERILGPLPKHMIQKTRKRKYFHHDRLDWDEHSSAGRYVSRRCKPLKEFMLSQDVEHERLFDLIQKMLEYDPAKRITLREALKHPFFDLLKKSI

The subject of this data set is Beacon (recombinant, expressed as GST-Beacon in E. coli, GST tag cleaved off with thrombin).
For “GST-CLK1 (recombinant human CLK1 fused to glutathione S-transferase, pGEX4T-1)”, the “phosphorylation of Beacon in kinase assay with [gamma-32P]-ATP” value (“phosphorylation of Beacon” for short) was “Beacon was not phosphorylated by any of the CLKs”.

As to “GST-CLK4 (recombinant human CLK4 fused to glutathione S-transferase, pGEX4T-1)”, the “phosphorylation of Beacon” value is on record as “Beacon was not phosphorylated by any of the CLKs”.

Take “GST-CLK2 (recombinant human CLK2 fused to glutathione S-transferase, pGEX4T-1)”: the “phosphorylation of Beacon” value was “Beacon was not phosphorylated by any of the CLKs”.
